Read-outs that look alike come from different tables or passages of the source. One block for each molecule: values may come before it.
How the values were obtained:
[1] = molecular target: Cdc3–Cdc11–(His)6–Cdc12-Cdc10(Δ12–28) complex (Cdc11-Cdc12-Cdc3-Cdc10(Δ12–28) hetero-tetramer) (S. cerevisiae) (UniProt P32457); assay: negative-stain electron microscopy
[2] = molecular target: Cdc3–Cdc11–(His)6–Cdc12-Cdc10(Δ12–28) complex (Cdc11-Cdc12-Cdc3-Cdc10(Δ12–28) hetero-tetramer) (S. cerevisiae) (UniProt P32457); assay: negative-stain electron microscopy; remark: listed apart in the source
[3] = molecular target: the molecule itself; assay: negative-stain electron microscopy
[4] = molecular target: Cdc12(Δ318–407) (S. cerevisiae); assay: negative-stain electron microscopy
[5] = molecular target: the molecule itself; assay: electron microscopy of lipid monolayers
[6] = molecular target: the molecule itself; assay: negative-stain electron microscopy; remark: listed apart in the source

percent of particles that are heptamers [1]: 18.2%
percent of particles that are hexamers [1]: 10.8%
percent of particles that are octamers [1]: 21.8%
percent of particles that are pentamers [1]: 8.03%
percent of particles that are tetramers [1]: 41.3%
percent of particles that are tetramers [2]: 88.3%
percent of particles that are trimers [2]: 11.7%
Molecule: Cdc3–Cdc11–(His)6–Cdc12-Cdc10(Δ12–28) complex (Cdc11-Cdc12-Cdc3-Cdc10(Δ12–28) hetero-tetramer) (from UniProt P32457 1-520; P32458 1-415; P32468 1-407; P25342 1-322)

percent of particles that are heptamers [4]: 31.5%
percent of particles that are hexamers [4]: 18.5%
percent of particles that are octamers [4]: 50%
B1: Cdc11 (natural protein, S. cerevisiae, UniProt P32458 1-415, looked up)
chain: MSGIIDASSALRKRKHLKRGITFTVMIVGQSGSGRSTFINTLCGQQVVDTSTTILLPTDTSTEIDLQLREETVELEDDEGVKIQLNIIDTPGFGDSLDNSPSFEIISDYIRHQYDEILLEESRVRRNPRFKDGRVHCCLYLINPTGHGLKEIDVEFIRQLGSLVNIIPVISKSDSLTRDELKLNKKLIMEDIDRWNLPIYNFPFDEDEISDEDYETNMYLRTLLPFAIIGSNEVYEMGGDVGTIRGRKYPWGILDVEDSSISDFVILRNALLISHLHDLKNYTHEILYERYRTEALSGESVAAESIRPNLTKLNGSSSSSTTTRRNTNPFKQSNNINNDVLNPASDMHGQSTGENNETYMTREEQIRLEEERLKAFEERVQQELLLKRQELLQREKELREIEARLEKEAKIKQEE
binding result [3]: binds

B2: (His)6–Cdc12-Cdc11-Cdc3(G261V) complex (complex, S. cerevisiae)
chain 1: MSAATATAAPVPPPVGISNLPNQRYKIVNEEGGTFTVMLCGESGLGKTTFINTLFQTVLKRADGQQHRQEPIRKTVEIDITRALLEEKHFELRVNVIDTPGFGDNVNNNKAWQPLVDFIDDQHDSYMRQEQQPYRTKKFDLRVHAVLYFIRPTGHGLKPIDIETMKRLSTRANLIPVIAKADTLTAQELQQFKSRIRQVIEAQEIRIFTPPLDADSKEDAKSGSNPDSAAVEHARQLIEAMPFAIVGSEKKFDNGQGTQVVARKYPWGLVEIENDSHCDFRKLRALLLRTYLLDLISTTQEMHYETYRRLRLEGHENTGEGNEDFTLPAIAPARKLSHNPRYKEEENALKKYFTDQVKAEEQRFRQWEQNIVNERIRLNGDLEEIQGKVKKLEEQVKSLQVKKSHLK
chain 2: MSGIIDASSALRKRKHLKRGITFTVMIVGQSGSGRSTFINTLCGQQVVDTSTTILLPTDTSTEIDLQLREETVELEDDEGVKIQLNIIDTPGFGDSLDNSPSFEIISDYIRHQYDEILLEESRVRRNPRFKDGRVHCCLYLINPTGHGLKEIDVEFIRQLGSLVNIIPVISKSDSLTRDELKLNKKLIMEDIDRWNLPIYNFPFDEDEISDEDYETNMYLRTLLPFAIIGSNEVYEMGGDVGTIRGRKYPWGILDVEDSSISDFVILRNALLISHLHDLKNYTHEILYERYRTEALSGESVAAESIRPNLTKLNGSSSSSTTTRRNTNPFKQSNNINNDVLNPASDMHGQSTGENNETYMTREEQIRLEEERLKAFEERVQQELLLKRQELLQREKELREIEARLEKEAKIKQEE
chain 3: MSLKEEQVSIKQDPEQEERQHDQFNDVQIKQESQDHDGVDSQYTNGTQNDDSERFEAAESDVKVEPGLGMGITSSQSEKGQVLPDQPEIKFIRRQINGYVGFANLPKQWHRRSIKNGFSFNLLCVGPDGIGKTTLMKTLFNNDDIEANLVKDYEEELANDQEEEEGQGEGHENQSQEQRHKVKIKSYESVIEENGVKLNLNVIDTEGFGDFLNNDQKSWDPIIKEIDSRFDQYLDAENKINRHSINDKRIHACLYFIEPTVHYLKPLDLKFMQSVYEKCNLIPVIAKSDILTDEEILSFKKTIMNQLIQSNIELFKPPIYSNDDAENSHLSERLFSSLPYAVIGSNDIVENYSGNQVRGRSYPWGVIEVDNDNHSDFNLLKNLLIKQFMEELKERTSKILYENYRSSKLAKLGIKQDNSVFKEFDPISKQQEEKTLHEAKLAKLEIEMKTVFQQKVSEKEKKLQKSETELFARHKEMKEKLTKQLKALEDKKKQLELSINSASPNVNHSPVPTKKKGFLR
binding result [5]: binds

B3: Cdc3–Cdc11–(His)6–Cdc12-Cdc10(H24A R25A K28A K29A) complex (complex, S. cerevisiae)
chain 1: MSLKEEQVSIKQDPEQEERQHDQFNDVQIKQESQDHDGVDSQYTNGTQNDDSERFEAAESDVKVEPGLGMGITSSQSEKGQVLPDQPEIKFIRRQINGYVGFANLPKQWHRRSIKNGFSFNLLCVGPDGIGKTTLMKTLFNNDDIEANLVKDYEEELANDQEEEEGQGEGHENQSQEQRHKVKIKSYESVIEENGVKLNLNVIDTEGFGDFLNNDQKSWDPIIKEIDSRFDQYLDAENKINRHSINDKRIHACLYFIEPTGHYLKPLDLKFMQSVYEKCNLIPVIAKSDILTDEEILSFKKTIMNQLIQSNIELFKPPIYSNDDAENSHLSERLFSSLPYAVIGSNDIVENYSGNQVRGRSYPWGVIEVDNDNHSDFNLLKNLLIKQFMEELKERTSKILYENYRSSKLAKLGIKQDNSVFKEFDPISKQQEEKTLHEAKLAKLEIEMKTVFQQKVSEKEKKLQKSETELFARHKEMKEKLTKQLKALEDKKKQLELSINSASPNVNHSPVPTKKKGFLR
chain 2: MSGIIDASSALRKRKHLKRGITFTVMIVGQSGSGRSTFINTLCGQQVVDTSTTILLPTDTSTEIDLQLREETVELEDDEGVKIQLNIIDTPGFGDSLDNSPSFEIISDYIRHQYDEILLEESRVRRNPRFKDGRVHCCLYLINPTGHGLKEIDVEFIRQLGSLVNIIPVISKSDSLTRDELKLNKKLIMEDIDRWNLPIYNFPFDEDEISDEDYETNMYLRTLLPFAIIGSNEVYEMGGDVGTIRGRKYPWGILDVEDSSISDFVILRNALLISHLHDLKNYTHEILYERYRTEALSGESVAAESIRPNLTKLNGSSSSSTTTRRNTNPFKQSNNINNDVLNPASDMHGQSTGENNETYMTREEQIRLEEERLKAFEERVQQELLLKRQELLQREKELREIEARLEKEAKIKQEE
chain 3: MSAATATAAPVPPPVGISNLPNQRYKIVNEEGGTFTVMLCGESGLGKTTFINTLFQTVLKRADGQQHRQEPIRKTVEIDITRALLEEKHFELRVNVIDTPGFGDNVNNNKAWQPLVDFIDDQHDSYMRQEQQPYRTKKFDLRVHAVLYFIRPTGHGLKPIDIETMKRLSTRANLIPVIAKADTLTAQELQQFKSRIRQVIEAQEIRIFTPPLDADSKEDAKSGSNPDSAAVEHARQLIEAMPFAIVGSEKKFDNGQGTQVVARKYPWGLVEIENDSHCDFRKLRALLLRTYLLDLISTTQEMHYETYRRLRLEGHENTGEGNEDFTLPAIAPARKLSHNPRYKEEENALKKYFTDQVKAEEQRFRQWEQNIVNERIRLNGDLEEIQGKVKKLEEQVKSLQVKKSHLK
chain 4: MDPLSSVQPASYVGFDTITNQIEAALLAAGFQFNIMVVGQSGLGKSTLINTLFASHLIDSATGDDISALPVTKTTEMKISTHTLVEDRVRLNINVIDTPGFGDFIDNSKAWEPIVKYIKEQHSQYLRKELTAQRERFITDTRVHAILYFLQPNGKELSRLDVEALKRLTEIANVIPVIGKSDTLTLDERTEFRELIQNEFEKYNFKIYPYDSEELTDEELELNRSVRSIIPFAVVGSENEIEINGETFRGRKTRWSAINVEDINQCDFVYLREFLIRTHLQDLIETTSYIHYEGFRARQLIALKENANSRSSAHMSSNAIQR
percent of particles that are heptamers [6]: 14.2%

B4: Cdc3–Cdc11–(His)6–Cdc12-Cdc10(I22E) complex (complex, S. cerevisiae)
chain 1: MSLKEEQVSIKQDPEQEERQHDQFNDVQIKQESQDHDGVDSQYTNGTQNDDSERFEAAESDVKVEPGLGMGITSSQSEKGQVLPDQPEIKFIRRQINGYVGFANLPKQWHRRSIKNGFSFNLLCVGPDGIGKTTLMKTLFNNDDIEANLVKDYEEELANDQEEEEGQGEGHENQSQEQRHKVKIKSYESVIEENGVKLNLNVIDTEGFGDFLNNDQKSWDPIIKEIDSRFDQYLDAENKINRHSINDKRIHACLYFIEPTGHYLKPLDLKFMQSVYEKCNLIPVIAKSDILTDEEILSFKKTIMNQLIQSNIELFKPPIYSNDDAENSHLSERLFSSLPYAVIGSNDIVENYSGNQVRGRSYPWGVIEVDNDNHSDFNLLKNLLIKQFMEELKERTSKILYENYRSSKLAKLGIKQDNSVFKEFDPISKQQEEKTLHEAKLAKLEIEMKTVFQQKVSEKEKKLQKSETELFARHKEMKEKLTKQLKALEDKKKQLELSINSASPNVNHSPVPTKKKGFLR
chain 2: MSGIIDASSALRKRKHLKRGITFTVMIVGQSGSGRSTFINTLCGQQVVDTSTTILLPTDTSTEIDLQLREETVELEDDEGVKIQLNIIDTPGFGDSLDNSPSFEIISDYIRHQYDEILLEESRVRRNPRFKDGRVHCCLYLINPTGHGLKEIDVEFIRQLGSLVNIIPVISKSDSLTRDELKLNKKLIMEDIDRWNLPIYNFPFDEDEISDEDYETNMYLRTLLPFAIIGSNEVYEMGGDVGTIRGRKYPWGILDVEDSSISDFVILRNALLISHLHDLKNYTHEILYERYRTEALSGESVAAESIRPNLTKLNGSSSSSTTTRRNTNPFKQSNNINNDVLNPASDMHGQSTGENNETYMTREEQIRLEEERLKAFEERVQQELLLKRQELLQREKELREIEARLEKEAKIKQEE
chain 3: MSAATATAAPVPPPVGISNLPNQRYKIVNEEGGTFTVMLCGESGLGKTTFINTLFQTVLKRADGQQHRQEPIRKTVEIDITRALLEEKHFELRVNVIDTPGFGDNVNNNKAWQPLVDFIDDQHDSYMRQEQQPYRTKKFDLRVHAVLYFIRPTGHGLKPIDIETMKRLSTRANLIPVIAKADTLTAQELQQFKSRIRQVIEAQEIRIFTPPLDADSKEDAKSGSNPDSAAVEHARQLIEAMPFAIVGSEKKFDNGQGTQVVARKYPWGLVEIENDSHCDFRKLRALLLRTYLLDLISTTQEMHYETYRRLRLEGHENTGEGNEDFTLPAIAPARKLSHNPRYKEEENALKKYFTDQVKAEEQRFRQWEQNIVNERIRLNGDLEEIQGKVKKLEEQVKSLQVKKSHLK
chain 4: MDPLSSVQPASYVGFDTITNQEEHRLLKKGFQFNIMVVGQSGLGKSTLINTLFASHLIDSATGDDISALPVTKTTEMKISTHTLVEDRVRLNINVIDTPGFGDFIDNSKAWEPIVKYIKEQHSQYLRKELTAQRERFITDTRVHAILYFLQPNGKELSRLDVEALKRLTEIANVIPVIGKSDTLTLDERTEFRELIQNEFEKYNFKIYPYDSEELTDEELELNRSVRSIIPFAVVGSENEIEINGETFRGRKTRWSAINVEDINQCDFVYLREFLIRTHLQDLIETTSYIHYEGFRARQLIALKENANSRSSAHMSSNAIQR
percent of particles that are heptamers [6]: 24.9%

Source: publication PMC3005623 (Journal of molecular biology, 2010)
